How the values were obtained:
[1] = target: T1, full-length human NEO1 on fixed HEK293 cells (Retrogenix panel) (human, UniProt Q92859 34-1461); assay: Retrogenix cell microarray, fixed HEK293 cells
T1 construct: whole, on cells; also called neogenin
T1 sequence (looked up): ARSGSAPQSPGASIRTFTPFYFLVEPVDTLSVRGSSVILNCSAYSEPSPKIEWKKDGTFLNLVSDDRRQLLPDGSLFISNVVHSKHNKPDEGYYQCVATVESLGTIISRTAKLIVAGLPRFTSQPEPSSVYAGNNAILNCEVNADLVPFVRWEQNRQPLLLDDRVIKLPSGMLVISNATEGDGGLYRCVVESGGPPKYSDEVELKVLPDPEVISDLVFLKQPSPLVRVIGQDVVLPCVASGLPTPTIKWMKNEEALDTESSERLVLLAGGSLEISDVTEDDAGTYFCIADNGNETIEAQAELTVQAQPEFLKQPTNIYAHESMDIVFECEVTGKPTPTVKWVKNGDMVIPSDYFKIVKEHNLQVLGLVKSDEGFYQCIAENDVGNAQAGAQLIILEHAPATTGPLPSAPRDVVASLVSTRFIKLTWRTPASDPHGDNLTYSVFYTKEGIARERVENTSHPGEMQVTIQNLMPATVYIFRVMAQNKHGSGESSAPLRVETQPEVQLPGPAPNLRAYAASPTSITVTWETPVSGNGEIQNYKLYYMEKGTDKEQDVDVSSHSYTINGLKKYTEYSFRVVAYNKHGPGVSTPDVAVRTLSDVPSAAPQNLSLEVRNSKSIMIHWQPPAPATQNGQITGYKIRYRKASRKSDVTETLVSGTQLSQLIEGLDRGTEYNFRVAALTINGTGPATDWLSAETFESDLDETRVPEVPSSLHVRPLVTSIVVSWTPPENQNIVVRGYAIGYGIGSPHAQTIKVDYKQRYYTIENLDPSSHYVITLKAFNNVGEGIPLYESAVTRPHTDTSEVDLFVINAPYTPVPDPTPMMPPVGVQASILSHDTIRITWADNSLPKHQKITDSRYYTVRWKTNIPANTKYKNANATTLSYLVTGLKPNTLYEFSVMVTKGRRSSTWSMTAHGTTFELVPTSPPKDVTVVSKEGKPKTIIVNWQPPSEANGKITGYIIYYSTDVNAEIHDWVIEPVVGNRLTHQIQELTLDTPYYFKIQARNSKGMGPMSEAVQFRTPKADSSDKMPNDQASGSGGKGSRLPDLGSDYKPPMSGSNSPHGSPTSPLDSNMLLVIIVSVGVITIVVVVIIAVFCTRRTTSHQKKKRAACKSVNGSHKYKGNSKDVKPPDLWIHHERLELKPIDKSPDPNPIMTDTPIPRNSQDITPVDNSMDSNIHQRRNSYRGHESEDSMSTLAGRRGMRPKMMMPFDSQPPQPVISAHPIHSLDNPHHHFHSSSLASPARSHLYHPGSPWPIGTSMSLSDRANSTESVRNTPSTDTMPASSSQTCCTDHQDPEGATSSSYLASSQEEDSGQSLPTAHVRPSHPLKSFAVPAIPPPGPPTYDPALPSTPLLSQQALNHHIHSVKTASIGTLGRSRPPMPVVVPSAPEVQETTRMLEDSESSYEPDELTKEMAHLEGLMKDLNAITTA

[2] = target: T2, Human recombinant UNC5A (BLI antigen) (Human, UniProt Q6ZN44 26-306); assay: BLI, antigen captured by His tag, antibody as analyte
T2 construct: Captured by His tag; also called UNC5A ectodomain
Source text: (§1) Antigen was loaded as ligand and dipped into antibody as analyte during association, and assay buffer during dissociation.
(§2) Purified recombinant antigens were purchased from a commercial supplier or prepared and purified in-house and details are shown in Table 2.

[3] = target: T3, Human recombinant UNC5B (BLI antigen) (Human, UniProt Q8IZJ1 27-377); assay: as above
T3 construct: also called UNC5B ectodomain
Source text: as §1, §2

[4] = target: T4, Human recombinant UNC5D (BLI antigen) (Human, UniProt Q6UXZ4 33-379); assay: as above
T4 construct: also called UNC5D ectodomain
Source text: as §1, §2

[5] = target: T5, Human Neogenin (R&D Systems catalogue number 8607-NE; BLI antigen) (Human, UniProt Q92859 34-1105); assay: as above
T5 construct: extracellular domain; Bought protein; also called neogenin-1 ectodomain; NEO1
T5 sequence (looked up): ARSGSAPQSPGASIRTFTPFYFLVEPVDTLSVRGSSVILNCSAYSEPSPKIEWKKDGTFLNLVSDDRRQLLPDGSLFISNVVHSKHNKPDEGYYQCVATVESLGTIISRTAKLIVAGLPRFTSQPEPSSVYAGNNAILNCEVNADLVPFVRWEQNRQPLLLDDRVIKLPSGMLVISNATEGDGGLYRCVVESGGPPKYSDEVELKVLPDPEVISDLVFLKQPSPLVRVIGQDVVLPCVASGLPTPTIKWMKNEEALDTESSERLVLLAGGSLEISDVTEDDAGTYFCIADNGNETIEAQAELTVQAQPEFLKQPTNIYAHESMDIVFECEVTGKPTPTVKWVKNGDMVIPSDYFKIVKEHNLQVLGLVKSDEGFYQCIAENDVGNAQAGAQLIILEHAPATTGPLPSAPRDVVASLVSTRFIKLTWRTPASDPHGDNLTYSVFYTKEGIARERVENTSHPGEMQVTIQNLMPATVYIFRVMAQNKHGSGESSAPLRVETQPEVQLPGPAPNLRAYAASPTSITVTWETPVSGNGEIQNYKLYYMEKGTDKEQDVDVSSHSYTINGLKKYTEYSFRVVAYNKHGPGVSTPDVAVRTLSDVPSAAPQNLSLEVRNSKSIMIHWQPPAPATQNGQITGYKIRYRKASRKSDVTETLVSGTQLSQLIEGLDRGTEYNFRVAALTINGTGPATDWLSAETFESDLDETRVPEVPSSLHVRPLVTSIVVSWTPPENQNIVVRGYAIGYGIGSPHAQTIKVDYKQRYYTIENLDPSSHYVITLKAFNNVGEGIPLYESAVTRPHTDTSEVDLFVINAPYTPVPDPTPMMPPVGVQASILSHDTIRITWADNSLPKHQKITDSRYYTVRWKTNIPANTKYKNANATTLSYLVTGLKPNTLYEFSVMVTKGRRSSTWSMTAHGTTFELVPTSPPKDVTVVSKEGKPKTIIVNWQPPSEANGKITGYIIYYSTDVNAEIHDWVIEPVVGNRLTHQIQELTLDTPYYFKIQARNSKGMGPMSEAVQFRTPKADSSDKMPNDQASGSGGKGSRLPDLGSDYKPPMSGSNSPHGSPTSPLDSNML
Source text: as §1, §2

[6] = target: T6, Human recombinant DCC (BLI antigen) (Human, UniProt P43146 26-1097); assay: as above
T6 construct: also called Netrin receptor DCC ectodomain
Source text: as §1, §2

T2 sequence (Q6ZN44 other isoform, or with tags, fused parts or gaps): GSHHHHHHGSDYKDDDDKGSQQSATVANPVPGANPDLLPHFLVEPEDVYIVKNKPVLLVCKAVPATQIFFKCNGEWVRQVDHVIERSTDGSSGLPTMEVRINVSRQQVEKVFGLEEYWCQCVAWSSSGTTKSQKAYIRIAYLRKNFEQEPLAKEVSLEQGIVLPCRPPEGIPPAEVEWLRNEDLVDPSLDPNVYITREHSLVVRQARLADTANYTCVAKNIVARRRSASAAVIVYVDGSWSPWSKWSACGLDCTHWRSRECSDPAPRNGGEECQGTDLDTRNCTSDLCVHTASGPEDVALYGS
T6 sequence (P43146 other isoform, or with tags, fused parts or gaps): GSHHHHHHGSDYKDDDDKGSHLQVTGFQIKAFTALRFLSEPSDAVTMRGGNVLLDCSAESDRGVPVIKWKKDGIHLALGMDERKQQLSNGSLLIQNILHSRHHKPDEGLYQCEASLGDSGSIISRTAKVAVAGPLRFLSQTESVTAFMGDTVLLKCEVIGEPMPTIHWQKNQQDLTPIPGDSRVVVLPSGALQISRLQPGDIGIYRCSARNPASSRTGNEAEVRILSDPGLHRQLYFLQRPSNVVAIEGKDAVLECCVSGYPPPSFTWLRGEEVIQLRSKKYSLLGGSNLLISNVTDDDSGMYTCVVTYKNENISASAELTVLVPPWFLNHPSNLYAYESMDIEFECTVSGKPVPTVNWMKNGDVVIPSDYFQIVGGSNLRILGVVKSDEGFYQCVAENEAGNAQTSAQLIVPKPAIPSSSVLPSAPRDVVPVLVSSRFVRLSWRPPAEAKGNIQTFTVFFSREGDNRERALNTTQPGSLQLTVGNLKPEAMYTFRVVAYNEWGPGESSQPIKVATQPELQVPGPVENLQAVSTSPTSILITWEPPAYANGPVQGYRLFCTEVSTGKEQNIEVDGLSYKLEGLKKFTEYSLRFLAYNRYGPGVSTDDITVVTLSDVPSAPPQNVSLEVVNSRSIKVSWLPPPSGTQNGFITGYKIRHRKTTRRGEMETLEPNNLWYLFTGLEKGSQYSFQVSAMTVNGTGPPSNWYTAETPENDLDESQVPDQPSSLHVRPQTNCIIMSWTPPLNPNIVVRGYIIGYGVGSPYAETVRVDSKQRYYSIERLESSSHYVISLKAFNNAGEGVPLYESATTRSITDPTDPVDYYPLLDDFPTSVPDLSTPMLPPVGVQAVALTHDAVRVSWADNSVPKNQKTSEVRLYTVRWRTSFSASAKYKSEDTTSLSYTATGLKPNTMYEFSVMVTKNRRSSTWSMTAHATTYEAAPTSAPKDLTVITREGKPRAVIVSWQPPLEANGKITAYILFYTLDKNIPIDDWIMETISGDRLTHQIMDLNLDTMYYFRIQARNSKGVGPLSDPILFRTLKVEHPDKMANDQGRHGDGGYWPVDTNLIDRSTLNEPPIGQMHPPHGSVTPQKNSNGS
T4 sequence (Q6UXZ4 other isoform, or with tags, fused parts or gaps): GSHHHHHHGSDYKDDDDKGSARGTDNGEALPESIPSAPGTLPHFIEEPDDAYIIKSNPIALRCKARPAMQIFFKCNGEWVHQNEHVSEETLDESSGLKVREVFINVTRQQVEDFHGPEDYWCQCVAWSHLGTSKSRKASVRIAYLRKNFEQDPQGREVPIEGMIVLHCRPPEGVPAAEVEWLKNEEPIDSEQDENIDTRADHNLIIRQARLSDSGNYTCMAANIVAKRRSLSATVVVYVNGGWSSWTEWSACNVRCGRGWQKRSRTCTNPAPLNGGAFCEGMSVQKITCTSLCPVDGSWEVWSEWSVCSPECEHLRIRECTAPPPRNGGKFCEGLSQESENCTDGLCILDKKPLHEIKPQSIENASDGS

B1: ATL_0006178 (antibody, IgG1, V domains shown)
VH: QVQLQESGPGLVKPSETLSLTCTVSGGSISSYFWSWIRQPPGKGLEWIGYIHYSGTTNQNPSLKSRVTISVDKSKNQFSLKLSSVTAADTAVYYCARGRGMATLPFDYWGQGTLVTVSS
VL: not shown
notes: Combination variant of ATL_5262 (T82K, Q67 kept, N58Y); also called ATL_6178; ATL6178
Question: Does B1 bind [1]?
Answer: no binding

Question: Does B1 bind [2]?
Answer: no binding (tested: up to 100 nM)

Question: Does B1 bind [3]?
Answer: no binding (tested: up to 100 nM)

Question: Does B1 bind [4]?
Answer: no binding (tested: up to 100 nM)

Question: Does B1 bind [5]?
Answer: no binding (tested: up to 100 nM)

Question: Does B1 bind [6]?
Answer: no binding (tested: up to 100 nM)
